Experimental data reported in the supplement of paper PMC10065799, “High-throughput profiling of sequence recognition by tyrosine kinases and SH2 domains using bacterial peptide display” (eLife, 2023).

What follows are sequences tested on AncSZ (assay: phosphorylation enrichment, bacterial display (enrichment ratio); higher = better substrate or ligand; peptides without Tyr show the background).
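Further: 11-residue human phosphosite peptides and single-mutation variants displayed on the E. coli surface, counted by deep sequencing, each peptide's frequency after selection divided by its frequency in the unselected input library; frequency after pTyr selection over input frequency; kinase dosed for 20-30% of maximal phosphorylation in three min.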

Row | Sequence | phosphorylation enrichment
1 | GYKVRYATWSI [FGFR1_Y210] | 1.06
2 | SGPRRYTMAAL [TTR_Y125_I127M] | 0.677
3 | DERQPYAHMNG [IGF1R_Y1346] | 0.588
4 | VATSWYRSPEL [CDKL5_Y177_R175S] | 0.768
5 | DEWFLYKMRDI [CPS1_Y879_K875E] | 1.25
6 | AFHGEYIPTVF [RAC2_Y32_P29H] | 0.859
7 | REENGYNTYAS [FGF10_Y161_I156R] | 1.22
8 | WFISFYPQVIM [CTNS_Y143_S139F] | 1.22
9 | AFQGKYTPSGQ [ALDOA_Y343_C339Y_YF] | 0.388
10 | AKKVFYVNETR [SHH_Y253_I255N] | 0.576
11 | ESTPLYPMLFG [SCLY_Y280_F276S] | 0.768
12 | EFISEHCGEII [EZH2_Y641_Y641H] | 1.35
13 | KELAPYDENRF [RPS19_Y48_W52R] | 1.05
14 | LALTVYADCLA [ABCA4_Y2063_G2059A] | 1.42
15 | ETKENYGKTLK [CHL1_Y291] | 0.526
16 | RHPLDYLRQFP [NARS2_Y138_E137D_YF] | 0.719
17 | LASSEYPVRRR [GALK1_Y236] | 0.62

Row | Sequence | phosphorylation enrichment
18 | QEIATYRPLLE [KRT14_Y415_R417P] | 1.02
19 | QGLRLYRPHLA [BTK_Y617] | 1.16
20 | HNLDYYKMTTN [FGFR3_Y648_K650M] | 1.91
21 | SVTCTYSAALN [TP53_Y126_P128A] | 1.31
22 | PEVRRCVLPLN [RPE65_Y368_Y368C] | 0.906
23 | LARHMYDKEYY [MET_Y1230_D1228H] | 1.17
24 | RLFARYFQGDL [PDK3_Y337_YF] | 0.826
25 | DRPASYLDKVR [KRT17_Y98_L95P] | 0.674
26 | VRRRSYSAGNA [KANK1_Y324_K321R] | 0.567
27 | ALAAPYVLFPS [CEFIP_Y1332_G1337S_YF] | 0.675
28 | GCCSWYRGWAP [TIMP3_Y195_Y191C] | 0.944
29 | DEEYEYMNRRR [ERBB3_Y1199] | 1.57
30 | EVTQDYGLDPK [FH_Y110_N107T] | 1.32
31 | VVQGIYGYHHH [UFSP2_Y285_Y290H] | 0.67
32 | PVRIAYDRPRG [SUGP2_Y985] | 0.923
33 | LNNIIYRVERA [CUX2_Y1470] | 1.48

These sequences were tested against EPHB1 (UniProt P54762) in the same assay as above.
Sequence of EPHB1 (P54762 whole entry, looked up): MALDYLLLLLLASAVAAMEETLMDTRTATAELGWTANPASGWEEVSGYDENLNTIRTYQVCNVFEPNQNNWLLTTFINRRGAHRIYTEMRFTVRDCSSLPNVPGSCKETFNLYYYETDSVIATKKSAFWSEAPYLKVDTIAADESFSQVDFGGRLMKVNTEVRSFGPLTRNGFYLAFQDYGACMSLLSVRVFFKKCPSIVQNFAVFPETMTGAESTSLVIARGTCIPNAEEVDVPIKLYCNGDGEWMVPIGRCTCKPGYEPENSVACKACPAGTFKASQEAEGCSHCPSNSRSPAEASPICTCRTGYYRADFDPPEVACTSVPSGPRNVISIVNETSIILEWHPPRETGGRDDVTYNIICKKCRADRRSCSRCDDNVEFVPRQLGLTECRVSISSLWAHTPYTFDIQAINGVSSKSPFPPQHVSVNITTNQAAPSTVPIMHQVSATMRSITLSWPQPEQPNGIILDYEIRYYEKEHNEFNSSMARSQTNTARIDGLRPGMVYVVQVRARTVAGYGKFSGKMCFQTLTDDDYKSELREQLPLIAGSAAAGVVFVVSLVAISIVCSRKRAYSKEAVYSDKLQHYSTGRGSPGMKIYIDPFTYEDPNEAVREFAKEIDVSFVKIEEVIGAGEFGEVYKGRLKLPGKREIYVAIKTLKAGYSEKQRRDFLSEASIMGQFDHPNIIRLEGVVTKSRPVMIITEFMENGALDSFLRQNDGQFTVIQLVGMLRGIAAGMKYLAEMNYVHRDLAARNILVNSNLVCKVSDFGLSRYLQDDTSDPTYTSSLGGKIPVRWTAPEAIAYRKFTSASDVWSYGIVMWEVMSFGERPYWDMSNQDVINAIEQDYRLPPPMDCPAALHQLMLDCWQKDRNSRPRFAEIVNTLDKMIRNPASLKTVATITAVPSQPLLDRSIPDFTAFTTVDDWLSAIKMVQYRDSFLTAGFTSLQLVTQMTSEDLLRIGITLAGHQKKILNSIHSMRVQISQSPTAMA

Row | Sequence | phosphorylation enrichment
34 | GYKVRYATWSI [FGFR1_Y210] | 0.573
35 | SGPRRYTMAAL [TTR_Y125_I127M] | 0.396
36 | DERQPYAHMNG [IGF1R_Y1346] | 0.359
37 | VATSWYRSPEL [CDKL5_Y177_R175S] | 0.417
38 | DEWFLYKMRDI [CPS1_Y879_K875E] | 0.751
39 | AFHGEYIPTVF [RAC2_Y32_P29H] | 0.554
40 | REENGYNTYAS [FGF10_Y161_I156R] | 0.856
41 | WFISFYPQVIM [CTNS_Y143_S139F] | 0.541
42 | AFQGKYTPSGQ [ALDOA_Y343_C339Y_YF] | 0.376
43 | AKKVFYVNETR [SHH_Y253_I255N] | 0.594
44 | ESTPLYPMLFG [SCLY_Y280_F276S] | 0.686
45 | EFISEHCGEII [EZH2_Y641_Y641H] | 0.733
46 | KELAPYDENRF [RPS19_Y48_W52R] | 0.594
47 | LALTVYADCLA [ABCA4_Y2063_G2059A] | 1.08
48 | ETKENYGKTLK [CHL1_Y291] | 0.348
49 | RHPLDYLRQFP [NARS2_Y138_E137D_YF] | 0.458
50 | LASSEYPVRRR [GALK1_Y236] | 0.542

Row | Sequence | phosphorylation enrichment
51 | QEIATYRPLLE [KRT14_Y415_R417P] | 0.791
52 | QGLRLYRPHLA [BTK_Y617] | 0.515
53 | HNLDYYKMTTN [FGFR3_Y648_K650M] | 2.13
54 | SVTCTYSAALN [TP53_Y126_P128A] | 0.876
55 | PEVRRCVLPLN [RPE65_Y368_Y368C] | 0.673
56 | LARHMYDKEYY [MET_Y1230_D1228H] | 0.693
57 | RLFARYFQGDL [PDK3_Y337_YF] | 0.416
58 | DRPASYLDKVR [KRT17_Y98_L95P] | 0.446
59 | VRRRSYSAGNA [KANK1_Y324_K321R] | 0.404
60 | ALAAPYVLFPS [CEFIP_Y1332_G1337S_YF] | 0.76
61 | GCCSWYRGWAP [TIMP3_Y195_Y191C] | 0.563
62 | DEEYEYMNRRR [ERBB3_Y1199] | 0.465
63 | EVTQDYGLDPK [FH_Y110_N107T] | 0.606
64 | VVQGIYGYHHH [UFSP2_Y285_Y290H] | 0.857
65 | PVRIAYDRPRG [SUGP2_Y985] | 0.464
66 | LNNIIYRVERA [CUX2_Y1470] | 0.87
